Residue numbers refer to the chain shown, from its start.
B1: 18G9-H11 Fab (Fab, V domains shown)
VH: EVQLVETGGSLVQPGKSLKLTCATSGFTFSNAWIQWVRQSPEKQLEWVAQIKAKSNNYATYYAESVKGRFTISRDDSKSSVYLQMNSLKEEDTALYYCTWRHYYSSHTMDAWGQGTLVTVSS
VL: DVVMTQTPVSLSVSLGGQVSISCRSSQSLVHNNGNTYLSWYLQKPGQSPQLLIYKVSNRFSGISDRFSGSGSGTDFTLKISRVAPTDLGVYYCGQGSQYPFTFGAGTKLELK
B2: 6B10-E4 anti-CD123 rat IgG (hybridoma supernatant) (antibody, V domains shown)
VH: EVQLVESGGGLVQPGRSLKLSCAASGFTFSHYNMAWVRQAPKKGLEWVATITYDDHSTYYRDSVKGRFTISRDTAKSTLYLQMDSLRSEDTATYYCARLVNYAFAYWGQGTLVTVSS
VL: NIVMTQSPKSMSISVGDRVTMNCKASQTVGNNIAWYQQKPGLSPQLLIDYASNRYTGVPNRFTGGGYGTDFILTINSVQAEDAAFYYCQRMYNSPTFGGGTKLELK
notes: rat IgG; also called BFX - 6B10
B3: 6C10-C4 anti-CD123 rat IgG (hybridoma supernatant) (antibody, V domains shown)
VH: EVKLQESGPSLVQPSETLSLTCTVSGFSLTSYSVHWVRQHSGKSLEWMGRMWNDGDTSYNSAFTSRLSISRDTSKGQVFLKMNSLQTEDTGTYYCARGHRTPFDYWGQGVMVTVSS
VL: DIVMTQSPSSLAVSAGETVTINCKSSQSFLSSGDERNYVAWYQHKPGQSPKLLIYWASTRHSGVPDRFIGSGSGTDFTLTISSVQAEDLAIYYCQQYYDTPLTFGSGTKLEIK
notes: rat IgG; also called BFX - 6C10
B4: 8B11-B7 anti-CD123 rat IgG (hybridoma supernatant) (antibody, V domains shown)
VH: QVQLQESGPTLVNPGDSVKMSCKASGYTFTDHIIHWVKQSHGKSLEWIGYINPYSGGANYNGKFKSKATLTIDKSSSTAYMEFSRLTSGDSAIYYCALNYGSYYAMDAWGQGTSVTVSS
VL: DIQMTQSPASLSASLGETVTIECRTSKDIYSNLAWFQQEPGNSPQLLIYDASNLADGVPSRFSGSGSGTQYSLQINNLQSEDVASYFCHQYNNYPYTFGTGTKLELK
notes: rat IgG; also called BFX - 8B11
B5: 9B8-G6 anti-CD123 rat IgG (hybridoma supernatant) (antibody, V domains shown)
VH: EVKLQESGPSLVQSSQTLSLTCTVSGFSLTSYHIHWVRQPPGKGLEWMGVMWSDGDTSYSSALKSRLSISRDTSQSQVFLKMNSLQTEDTATYYCARGDYSSYIYLWFAYWGQGTLVTVSS
VL: B3 VL
notes: rat IgG; also called BFX - 9B8
B6: 9D7-C8 anti-CD123 rat IgG (hybridoma supernatant) (antibody, V domains shown)
VH: B5 VH with P40T, S60N, D99Y, I104L
VL: B3 VL with A15E, E35G, R36K, H44Y, H61Q, S83T
notes: rat IgG; also called BFX - 9D7
B7: 9F6-G3 anti-CD123 rat IgG (hybridoma supernatant) (antibody, V domains shown)
VH: B4 VH with N13K, H32Y, G56D, A58T, G62E, I72V, S76T, G89E, Y95F
VL: B4 VL with T25P, K27E, Y30H, L33V, F36Y, E39K, Q74K, N77S, N93I, T100S
notes: rat IgG; also called BFX - 9F6

Experiments:
[1] = molecular target: T1, human CD3ε/δ-Fc fusion protein (soluble recombinant CD3ε/δ complex) (human, UniProt P04234 22-105); test: SPR, CD3-Fc captured, Fab 100 nM
T1 construct: also called huCD3ε/δ; huCD3; not shown: hinge, CH2, CH3 of human IgG with tag
T1 sequence (chain, as listed by the source mutant, chain 1 of 2): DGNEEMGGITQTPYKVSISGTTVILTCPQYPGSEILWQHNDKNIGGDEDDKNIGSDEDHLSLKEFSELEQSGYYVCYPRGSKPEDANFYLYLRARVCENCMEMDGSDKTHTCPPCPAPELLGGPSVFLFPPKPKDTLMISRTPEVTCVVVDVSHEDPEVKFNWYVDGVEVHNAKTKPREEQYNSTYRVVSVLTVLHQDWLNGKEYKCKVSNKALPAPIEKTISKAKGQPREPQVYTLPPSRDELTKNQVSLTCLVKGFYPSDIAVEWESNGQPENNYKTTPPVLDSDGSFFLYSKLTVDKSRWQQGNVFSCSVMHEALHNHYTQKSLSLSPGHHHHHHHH
T1 sequence (P04234 22-105, stated change not applied, chain 2 of 2): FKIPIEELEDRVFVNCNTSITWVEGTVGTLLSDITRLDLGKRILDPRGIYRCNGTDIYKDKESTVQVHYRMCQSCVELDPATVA
Protocol: (§1) Binding was tested by SPR using a BIAcore3000 instrument run with HBS-EP buffer. Recombinant huCD3 proteins (ε/δ (PB01226), ε/γ (PB01225)) were captured at 10 μl/min via Fc-tag by anti-human Fc capture antibody MAB1302 (Millipore) immobilized on a CM5 sensor chip. Anti-CD3 Fabs were used as analytes at 100 nM with association and dissociation times of 240 sec and 300 sec, respectively at 30 μl/min. After each cycle the surfaces were regenerated by a 2 min pulse of 10 mM glycine buffer pH2.5.

[2] = molecular target: recombinant huCD3ε/γ protein with Fc-tag (PB01225) (human, UniProt P07766 23-126; P09693 23-116); test: SPR, CD3-Fc captured, Fab 100 nM
Protocol: as §1

[3] = molecular target: T2, human CD3ε expressed alone on HEK293F cells (human, UniProt P07766 23-207); test: flow cytometry, transfected HEK293F
T2 construct: also called huCD3ε
Protocol: (§2) To analyze binding of antibodies to human CD3ε and human CD3δ expressed on the surface of cells, HEK293F cells were transfected with both constructs either alone or in co-transfection and signals were measured by flow cytometry. For transfection procedure FuGENE HD Transfection Reagent (Promega, #E2311) was used according to manufacturer's protocol.
(§3) Antibodies for staining were seeded at 1 μg in 50 μl per well Stain Buffer with FBS (BD Pharmingen) in 96-well U-bottom suspension culture plates (Greiner bio-one). Harvested transfected cells were resuspended in Stain Buffer with FBS and were added at 50 μl per well to the antibodies. Cells were incubated at 4° C. in the dark for 30 min and were washed twice. 0.5 μg secondary antibody Goat F(ab′)2 Anti-Human IgG-FITC (Beckman Coulter, #732598) or Goat F(ab′)2 Anti-Human kappa-PE (Southern Biotech, #206209), respectively, in combination with 0.5 μg 7-AAD per well was added in 100 μl Stain Buffer with FBS. Cells were incubated at 4° C. in the dark for 15 min and were washed twice. For measurement, cells were resuspended in 200 μl Stain Buffer with FBS. Cells were measured using the MACSQuant (Miltenyi Biotec) or LSRII (BD) flow cytometer, respectively. Further data analyses were performed using the FlowJo software (Tree Star, Inc.).

[4] = molecular target: T3, human CD3ε and CD3δ co-expressed on HEK293F cells (human, UniProt P07766 23-207; P04234 22-171); test: flow cytometry, transfected HEK293F
T3 construct: also called huCD3ε/δ (transfected cells); huCD3e + huCD3d
Protocol: as §2, §3

[5] = molecular target: T4, human CD3 (TCR complex) on primary human T cells or Jurkat cells (human, UniProt P07766 23-207); test: flow cytometry, primary human T cells
T4 construct: on the cells it stands in the whole TCR/CD3 complex; also called Jurkat E6-1 (expressing human TCR)
Protocol: The binding capacity of the CD3-Fabs was determined by flow cytometry. Primary human T cells were used as target cells. Therefore, peripheral blood mononuclear cells (PBMCs) were isolated from 200 ml peripheral blood of healthy donors treated with EDTA by Ficoll density centrifugation. 15 ml Histopaque (Sigma-Aldrich) was preloaded on a 50 ml Leucosep-Tube (Greiner bio-one). Blood was diluted with autoMACS Rinsing Buffer+1% BSA (Miltenyi Biotec) and loaded on the membrane of a total of ten prepared tubes. Tubes were centrifuged without brake for 10 min at 1000 xg. PBMCs were collected and washed with autoMACS Rinsing Buffer+1% BSA three times. Finally, PBMCs were resuspended in autoMACS Running Buffer (Miltenyi Biotec) for isolation of T lymphocytes by autoMACSpro technology using the Pan T Cell isolation Kit (Miltenyi Biotec) according to manufacturer's instructions. Purity of separated T cells was analyzed by MACSQuant flow cytometry using the human 7-Color Immunophenotyping Kit (Miltenyi Biotec). Isolated T cells were resuspended in Stain Buffer with FBS (BD Pharmingen) and 1E5 cells in 100 μl per well were seeded in 96-well U-bottom suspension culture plates (Greiner bio-one). Fab antibodies were diluted 1:3 in serial in PBS (Invitrogen) and 5 μl each were added to the cells at a final maximum concentration of 30000 ng/ml. The assay was incubated for 45 min at 4° C. Cells were washed twice with Stain Buffer with FBS and 1 μg secondary antibody Goat F(ab′)2 Anti-Human kappa-FITC (Beckman Coulter, #732621) per well was added in 100 μl Stain Buffer with FBS per well. The assay was incubated for 20 min at 4° C. and washed twice afterwards. Cells were resuspended in 150 μl Stain Buffer with FBS per well and were measured using the MACSQuant (Miltenyi Biotec) or LSRII (BD) flow cytometer. Further data analyses were performed using the FlowJo software (Tree Star, Inc.). Read out was percentage of cells positive for antibody binding. Cells treated only with the secondary but no primary antibody were used to set the gates. EC50 Curves were calculated by XLfit (Algorithm 205), EC50 values were calculated as inflection point of the slope (data are shown in table 6).

[6] = molecular target: T1, human CD3ε/δ-Fc fusion protein (soluble …); test: SPR Biacore, CD3εδ-Fc captured, Fab analyte
Protocol: Binding affinities of anti-CD3 binding Fabs or CODV-Fabs were measured by surface plasmon resonance (SPR) using a Biacore3000 instrument (GE Healthcare). Assay buffer was HBS-EP (BR-1001-88, GE Healthcare). Capture of CD3ε/δ-Fc fusion proteins was achieved using the human antibody capture kit (GE Healthcare). […] The CD3εδ-Fc fusions proteins were captured at 10 μl/min to approx. 70 RU to yield Rmax values of 30 RU. Binding kinetics with the anti-CD3 Fabs or CODV-Fabs was measured at 30 μl/min for 240 sec. and 600 sec. for association and dissociation phase, respectively. Twofold dilutions of Fabs from 3 to 400 nM in assay buffer were used. All Fab concentrations were run in duplicate together with duplicate buffer blanks for double referencing. Regeneration of the capture surface was performed with a 1 min injection of 3M MgCl2 solution at 30 μl/min. For data analysis the BIAevaluation software v.4.1 (GE Healthcare) was used. Data were fit globally using a 1:1 Langmuir model with mass transfer.

[7] = molecular target: T5, human CD3δ expressed alone on HEK293F cells (human, UniProt P04234 22-171); test: flow cytometry, HEK293F transfected with huCD3δ
T5 construct: entry includes the signal peptide; also called huCD3δ
T5 sequence (P04234 22-171 limits assumed, stated change not applied): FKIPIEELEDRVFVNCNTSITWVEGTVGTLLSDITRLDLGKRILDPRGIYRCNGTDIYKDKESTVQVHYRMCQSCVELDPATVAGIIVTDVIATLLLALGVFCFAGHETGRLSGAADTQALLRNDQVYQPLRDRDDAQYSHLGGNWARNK
Protocol: as §2
Cells were incubated on a shaker at 37° C. and 5% CO2. At day one to three after transfection cells were harvested and binding of antibodies was analyzed by flow cytometry.
as §3

[8] = molecular target: T6, Macaca fascicularis CD123 Fc-fusion protein (Macaca fascicularis); test: SPR Proteon XPR36, rat IgG captured, CD123-Fc analyte
T6 construct: also called cyno CD123-Fc
T6 sequence (chain, as listed by the source limits assumed): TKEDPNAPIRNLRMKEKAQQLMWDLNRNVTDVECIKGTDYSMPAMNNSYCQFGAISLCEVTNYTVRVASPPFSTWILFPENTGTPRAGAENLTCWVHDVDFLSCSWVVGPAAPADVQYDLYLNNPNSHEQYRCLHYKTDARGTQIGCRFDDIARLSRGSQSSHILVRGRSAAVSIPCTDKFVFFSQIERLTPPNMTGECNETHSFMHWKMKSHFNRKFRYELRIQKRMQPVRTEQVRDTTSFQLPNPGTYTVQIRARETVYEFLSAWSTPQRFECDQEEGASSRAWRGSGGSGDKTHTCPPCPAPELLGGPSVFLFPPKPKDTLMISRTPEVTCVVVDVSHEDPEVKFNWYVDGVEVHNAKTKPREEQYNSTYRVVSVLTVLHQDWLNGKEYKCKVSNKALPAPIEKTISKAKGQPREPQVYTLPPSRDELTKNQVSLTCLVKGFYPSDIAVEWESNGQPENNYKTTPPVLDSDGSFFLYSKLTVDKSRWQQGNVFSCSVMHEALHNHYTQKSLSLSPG
Protocol: (§4) Screening of anti-CD123 rat IgGs for binding affinities to human CD123 and cross-reactivities to cyno CD123 was performed with hybridoma supernatants using a Proteon XPR36 (Biorad) in a one-shot kinetics approach. A capture assay was established using a goat anti-rat IgG (112-005-071, Jackson Immuno Research). The capture antibody was coated on GLC chips (176-5011, Biorad) to approx. 8000 RU in the vertical direction using the amine coupling kit (176-2410, Biorad). […] Binding kinetics with human and cyno CD123-Fc fusion protein was measured at 100 μl/min in the horizontal direction with 120 sec. and 600 sec. for association and dissociation, respectively. The CD123-Fc proteins were used in twofold dilutions from 6 nM to 100 nM. PBSET buffer (176-2730, Biorad) was used as assay buffer. Regeneration was achieved by injection of 10 mM Glycine buffer pH 1.5 for 18 sec at 30 μl/min. Data processing and analysis was performed using ProteonManager software v3.0. Fitting of the sensorgrams was done with a 1:1 Langmuir model.

[9] = molecular target: T7, human CD123 Strep-II tagged Fc-fusion protein (human); test: as above
T7 construct: also called human CD123-Fc; recombinant CD123
T7 sequence (chain, as listed by the source limits assumed): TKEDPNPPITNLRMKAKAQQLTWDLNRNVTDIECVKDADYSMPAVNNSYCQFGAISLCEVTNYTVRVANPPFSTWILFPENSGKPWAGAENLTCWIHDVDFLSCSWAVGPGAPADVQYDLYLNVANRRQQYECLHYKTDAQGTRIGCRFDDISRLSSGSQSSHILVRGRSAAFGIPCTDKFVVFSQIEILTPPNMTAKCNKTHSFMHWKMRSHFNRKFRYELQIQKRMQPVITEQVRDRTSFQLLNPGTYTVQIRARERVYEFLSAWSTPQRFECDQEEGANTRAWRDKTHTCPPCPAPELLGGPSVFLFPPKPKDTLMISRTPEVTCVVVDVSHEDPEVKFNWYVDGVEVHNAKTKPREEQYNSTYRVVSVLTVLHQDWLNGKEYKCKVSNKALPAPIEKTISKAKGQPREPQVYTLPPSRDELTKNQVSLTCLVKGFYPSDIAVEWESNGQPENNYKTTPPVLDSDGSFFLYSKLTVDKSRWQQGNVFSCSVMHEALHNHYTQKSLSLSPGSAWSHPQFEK
Protocol: as §4

[10] = molecular target: T8, human CD123 (IL3RA) on cells (human, UniProt P26951 19-378); test: flow cytometry, CD123 transfected HEK293, hybridoma supernatant
T8 construct: also called CD123 transfected HEK293; THP-1
T8 sequence (P26951 19-378): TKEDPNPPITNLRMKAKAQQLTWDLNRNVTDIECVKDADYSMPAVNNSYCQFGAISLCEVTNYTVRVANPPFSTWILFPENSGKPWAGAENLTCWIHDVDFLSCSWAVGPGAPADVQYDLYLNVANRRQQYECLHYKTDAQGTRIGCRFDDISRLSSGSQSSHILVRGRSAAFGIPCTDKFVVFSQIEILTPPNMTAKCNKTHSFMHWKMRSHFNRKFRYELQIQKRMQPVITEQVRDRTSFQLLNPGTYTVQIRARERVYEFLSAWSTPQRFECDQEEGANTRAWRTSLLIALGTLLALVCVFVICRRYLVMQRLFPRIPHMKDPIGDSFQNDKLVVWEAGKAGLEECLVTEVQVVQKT
Protocol: Cells were resuspended in 200 μl Stain Buffer with FBS per well and were measured using the MACSQuant (Miltenyi Biotec) or LSRII (BD) flow cytometer. Further data analyses were performed using the FlowJo software (Tree Star, Inc.). Read out was percentage of cells positive for antibody binding. Cells treated only with the secondary but no primary antibody were used to set the gates. Curves were calculated by XLfit (Algorithm 205).

Binder | RU of Fab binding at 100 nM [1] | RU of Fab binding at 100 nM [2] | % antibody positive transfected cells [3] | % antibody positive transfected cells [4] | EC50 [5] | Kd [6] | koff [6] | kon [6] | binding result [7] | Kd [8] | Kd [9] | koff [9] | kon [9] | EC50 [10]
B1 | 10 RU | 3 RU | 95% | 97% | 1.7 nM | 4.4 nM | 0.0011 s⁻¹ | 250000 M⁻¹ s⁻¹ | no binding (tested: <20% of binding of huCD3e + huCD3d) | – | – | – | – | –
B2 | – | – | – | – | – | – | – | – | – | 0.1 nM | 0.15 nM | 1.5e-05 s⁻¹ | 230000 M⁻¹ s⁻¹ | 5 ng/mL
B3 | – | – | – | – | – | – | – | – | – | 0.79 nM | 0.75 nM | 0.00014 s⁻¹ | 180000 M⁻¹ s⁻¹ | 6.1 ng/mL
B4 | – | – | – | – | – | – | – | – | – | 0.1 nM | 0.01 nM | 6.2e-06 s⁻¹ | 470000 M⁻¹ s⁻¹ | 0.4 ng/mL
B5 | – | – | – | – | – | – | – | – | – | 0.17 nM | 0.19 nM | 0.00028 s⁻¹ | 1.5e+06 M⁻¹ s⁻¹ | 1.2 ng/mL
B6 | – | – | – | – | – | – | – | – | – | 0.07 nM | 0.3 nM | 0.00032 s⁻¹ | 1e+06 M⁻¹ s⁻¹ | 0.9 ng/mL
B7 | – | – | – | – | – | – | – | – | – | 0.5 nM | 0.04 nM | 6.7e-06 s⁻¹ | 180000 M⁻¹ s⁻¹ | 1.3 ng/mL

Reference: patent US20210292423A1 (published 2021)
